The values below come from PMC7522650, “An Alternative Binding Mode of IGHV3-53 Antibodies to the SARS-CoV-2 Receptor Binding Domain” (Cell Reports, 2020).

Some results are limits rather than exact numbers.

This assay addresses SARS-CoV-2 spike (S) protein receptor-binding domain (RBD), residues 319-541 (SARS-CoV-2, Wuhan-Hu-1 (GenBank …, UniProt P0DTC2)). In words: BLI. Particulars: both partners purified.

B1: COVA2-04 Fab (Fab, V domains shown)
VH: QVQLVETGGGLIQPGGSLRLSCAASGFTVSSNYMSWVRQAPGKGLEWVSVIYSGGSTFYADSVKGRFTISRDNSKNTLYLQMNSLRAEDTAVYYCARDLERAGGMDVWGQGTMVTVSS
VL: not shown
Molecule B1 registered a Kd of 40 nM.

B2: COVA2-39 Fab (Fab, V domains shown)
VH: QVQLVETGGGLIQPGGSLRLSCAASGFTVSSNYMSWVRQAPGKGLEWVSVIYTGGTTYYADSVKGRFTISRDNSKNTLYLQMNSLRAEDTAVYYCARAHVDTAMVESGAFDIWGQGTRVTVSS
VL: QSALTQPASVSGSPGQSITISCTGTSSDVGSYNLVSWYQQHPGKAPKLMIYEVTKRPSGVSNRFSGSKSGNTASLTISGLQAEDEADYYCCSYAGSSTWVFGGGTKLTVL
In the case of B2, the Kd was 21 nM.

B3: COVA2-39 with the 53TGGT56 motif reverted to the germline-encoded 53SGGS56 motif (Fab, V domains shown)
VH: QVQLVETGGGLIQPGGSLRLSCAASGFTVSSNYMSWVRQAPGKGLEWVSVIYSGGSTYYADSVKGRFTISRDNSKNTLYLQMNSLRAEDTAVYYCARAHVDTAMVESGAFDIWGQGTRVTVSS
VL: QSALTQPASVSGSPGQSITISCTGTSSDVGSYNLVSWYQQHPGKAPKLMIYEVTKRPSGVSNRFSGSKSGNTASLTISGLQAEDEADYYCCSYAGSSTWVFGGGTKLTVL
With B3, the “fold decrease in other” value was no less than 50 fold.
